# Experimental data published in patent publication US10239925B2, “Peptides and combination of peptides for use in immunotherapy against ovarian cancer and other cancers” (IMMATICS BIOTECHNOLOGIES GMBH, priority 2015, dated 2019).
# Molecular target: HLA-A*02:01 (Homo sapiens, UniProt P04439, D140Y/D185E/D98H/E176V/E277Q/G131W/G231S/I119V/I121R/I166T/I218V/L300P/L318F/N151K/N90K/P208A/P217A/Q86G/Q94H/R138H/R169H/T345S)
# Assay: MHC binding assay (UV-ligand exchange, anti-β2m ELISA, peptide exchange yield)
# Details: binding to HLA-A*02:01
# Outline: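 Peptide-MHC complexes formed by UV-ligand exchange, cleaving a UV-sensitive placeholder peptide in favour of the test peptide. Exchange yield measured by ELISA: monomers diluted 100-fold onto streptavidin-coated plates, 1 h 37 °C, detected with 2 ug/ml HRP anti-β2m and TMB, absorbance at 450 nm.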
row,Substance,"Peptide exchange (MHC class I binding score, peptide exchange yield)"
1,438 (KLLPLAGLYL; listed as Homo sapiens) [compound 438],“++++” (>75% = ++++)
2,582 (TLCDVILMV; listed as Homo sapiens) [compound 582],“+++” (>50 = +++)
3,229 (RLPGPLGTV; listed as Homo sapiens) [compound 229],“++” (>20% = ++)
4,531 (YTLPIASSIRL; listed as Homo sapiens) [compound 531],“+++” (>50 = +++)
5,277 (LLPPLESLATV; listed as Homo sapiens) [compound 277],“++” (>20% = ++)
6,92 (YLIPFTGIVGL; listed as Homo sapiens) [compound 92],“++” (>20% = ++)
7,409 (LLDAMNYHL; listed as Homo sapiens) [compound 409],“++” (>20% = ++)
8,171 (LLLPLQILL; listed as Homo sapiens) [compound 171],“+++” (>50 = +++)
9,186 (TLFFQQNAL; listed as Homo sapiens) [compound 186],“++” (>20% = ++)
10,86 (NLIGKIENV; listed as Homo sapiens) [compound 86],“+++” (>50 = +++)
11,185 (FLIDDKGYTL; listed as Homo sapiens) [compound 185],“++” (>20% = ++)
12,426 (RLADKSVLV; listed as Homo sapiens) [compound 426],“+++” (>50 = +++)
13,606 (ALWETEVYI; listed as Homo sapiens) [compound 606],“+++” (>50 = +++)
14,183 (FGLDLVTEL; listed as Homo sapiens) [compound 183],“+++” (>50 = +++)
15,100 (YLLSTNAQL; listed as Homo sapiens) [compound 100],“++++” (>75% = ++++)
16,592 (RLLSAAENFL; listed as Homo sapiens) [compound 592],“+++” (>50 = +++)
17,276 (ALFTFSPLTV; listed as Homo sapiens) [compound 276],“+++” (>50 = +++)
18,32 (KLDDLTQDLTV; listed as Homo sapiens) [compound 32],“++” (>20% = ++)
19,364 (LLQNEQFEL; listed as Homo sapiens) [compound 364],“+++” (>50 = +++)
20,597 (KLLEGQVIQL; listed as Homo sapiens) [compound 597],“+++” (>50 = +++)
21,114 (SLVGEPILQNV; listed as Homo sapiens) [compound 114],“++” (>20% = ++)
22,442 (GLLGGGGVLGV; listed as Homo sapiens) [compound 442],“+++” (>50 = +++)
23,529 (LLADELITV; listed as Homo sapiens) [compound 529],“+++” (>50 = +++)

row,Substance,"Peptide exchange (MHC class I binding score, peptide exchange yield)"
1,508 (ILAQEQLVVGV; listed as Homo sapiens) [compound 508],“+++” (>50 = +++)
2,335 (YSLSSVVTV; listed as Homo sapiens) [compound 335],“+++” (>50 = +++)
3,309 (GLFDGVPTTA; listed as Homo sapiens) [compound 309],“+++” (>50 = +++)
4,73 (NIFDLQIYV; listed as Homo sapiens) [compound 73],“+++” (>50 = +++)
5,330 (QLALKVEGV; listed as Homo sapiens) [compound 330],“+++” (>50 = +++)
6,126 (VLAYFLPEA; listed as Homo sapiens) [compound 126],“++++” (>75% = ++++)
7,617 (ALMYESEKVGV; listed as Homo sapiens) [compound 617],“+++” (>50 = +++)
8,192 (KMLDGASFTL; listed as Homo sapiens) [compound 192],“+++” (>50 = +++)
9,618 (VLFDSESIGIYV; listed as Homo sapiens) [compound 618],“+++” (>50 = +++)
10,588 (SLLPLSHLV; listed as Homo sapiens) [compound 588],“+++” (>50 = +++)
11,519 (GLLHLTLLL; listed as Homo sapiens) [compound 519],“+++” (>50 = +++)
12,583 (ILANDGVLLAA; listed as Homo sapiens) [compound 583],“+++” (>50 = +++)
13,134 (YLQELIFSV; listed as Homo sapiens) [compound 134],“+++” (>50 = +++)
14,280 (VLPDPEVLEAV; listed as Homo sapiens) [compound 280],“+++” (>50 = +++)
15,70 (GLLDYPVGV; listed as Homo sapiens) [compound 70],“+++” (>50 = +++)
16,615 (VLPPDTDPA; listed as Homo sapiens) [compound 615],“++” (>20% = ++)
17,221 (ALYEEGLLL; listed as Homo sapiens) [compound 221],“++” (>20% = ++)
18,187 (RQISIRGIVGV; listed as Homo sapiens) [compound 187],“+++” (>50 = +++)
19,607 (RLYSGISGLEL; listed as Homo sapiens) [compound 607],“+++” (>50 = +++)
20,133 (KVLSNIHTV; listed as Homo sapiens) [compound 133],“++” (>20% = ++)
21,300 (ALLGQTFSL; listed as Homo sapiens) [compound 300],“+++” (>50 = +++)
22,484 (SLIEKVTQL; listed as Homo sapiens) [compound 484],“+++” (>50 = +++)
23,54 (SLLEQGKEPWMV; listed as Homo sapiens) [compound 54],“+++” (>50 = +++)

row,Substance,"Peptide exchange (MHC class I binding score, peptide exchange yield)"
1,149 (NLLELFVQL; listed as Homo sapiens) [compound 149],“+++” (>50 = +++)
2,543 (GLLPTPITQQASL; listed as Homo sapiens) [compound 543],“+++” (>50 = +++)
3,53 (KMIETDILQKV; listed as Homo sapiens) [compound 53],“++++” (>75% = ++++)
4,151 (KILQQLVTL; listed as Homo sapiens) [compound 151],“+++” (>50 = +++)
5,333 (FLPDANSSV; listed as Homo sapiens) [compound 333],“++” (>20% = ++)
6,501 (LLDPNVKSIFV; listed as Homo sapiens) [compound 501],“+++” (>50 = +++)
7,430 (HLYSSIEHLTT; listed as Homo sapiens) [compound 430],“+++” (>50 = +++)
8,554 (LLMPSSEDLLL; listed as Homo sapiens) [compound 554],“+++” (>50 = +++)
9,249 (LLDGFLVNV; listed as Homo sapiens) [compound 249],“+++” (>50 = +++)
10,286 (YLFPGIPEL; listed as Homo sapiens) [compound 286],“+++” (>50 = +++)
11,523 (YQIPRTFTL; listed as Homo sapiens) [compound 523],“++” (>20% = ++)
12,487 (LLINSVFHV; listed as Homo sapiens) [compound 487],“+++” (>50 = +++)
13,217 (ALIHPVSTV; listed as Homo sapiens) [compound 217],“++” (>20% = ++)
14,502 (RLLAQVPGL; listed as Homo sapiens) [compound 502],“+++” (>50 = +++)
15,318 (GLINTGVLSV; listed as Homo sapiens) [compound 318],“++” (>20% = ++)
16,566 (VIADGGIQNV; listed as Homo sapiens) [compound 566],“++” (>20% = ++)
17,244 (SLFGGTEITI; listed as Homo sapiens) [compound 244],“+++” (>50 = +++)
18,132 (LLVEQPPLAGV; listed as Homo sapiens) [compound 132],“+++” (>50 = +++)
19,596 (ALLDQTKTLAESAL; listed as Homo sapiens) [compound 596],“+++” (>50 = +++)
20,394 (LLAVIGGLVYL; listed as Homo sapiens) [compound 394],“+++” (>50 = +++)
21,200 (LLFGSVQEV; listed as Homo sapiens) [compound 200],“+++” (>50 = +++)
